Measured values: patent US20230272114A1 (published 2023)

T1: Fc region of IgE (UniProt P01854 105-428)
T1 chain: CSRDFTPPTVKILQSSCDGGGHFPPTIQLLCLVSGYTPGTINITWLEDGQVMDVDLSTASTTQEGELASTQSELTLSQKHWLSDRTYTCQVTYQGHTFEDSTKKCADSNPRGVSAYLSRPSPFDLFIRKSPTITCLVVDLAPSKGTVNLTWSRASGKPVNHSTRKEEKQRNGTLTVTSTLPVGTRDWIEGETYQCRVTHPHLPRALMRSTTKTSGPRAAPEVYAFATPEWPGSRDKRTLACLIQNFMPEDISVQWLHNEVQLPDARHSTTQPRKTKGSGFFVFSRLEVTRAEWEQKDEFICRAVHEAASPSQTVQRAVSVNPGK

T2: recombinant human FcγRIIb protein (R&D Systems) (human, UniProt P31994 46-217)
T2 chain: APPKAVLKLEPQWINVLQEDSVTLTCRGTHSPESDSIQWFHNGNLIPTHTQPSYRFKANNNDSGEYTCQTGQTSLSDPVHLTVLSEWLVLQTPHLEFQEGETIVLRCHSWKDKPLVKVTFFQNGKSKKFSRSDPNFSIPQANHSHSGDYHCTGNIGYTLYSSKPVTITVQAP


How the values were obtained:
[1] = biological target: S267E; assay: Biacore SPR
[2] = biological target: T1, Fc region of IgE; assay: Biacore
[3] = biological target: T2, recombinant human FcγRIIb protein (R&D …); assay: Biacore SPR

| Binder | Kd [1] | Kd [2] | Kd [3] |
| --- | --- | --- | --- |
| H131 FcγRIIa (receptor) QAAAPPKAVLKLEPPWINVLQEDSVTLTCQGARSPESDSIQWFHNGNLIPTHTQPSYRFKANNNDSGEYTCQTGQTSLSDPVHLTVLSEWLVLQTPHLEFQEGETIMLRCHSWKDKPLVKVTFFQNGKSQKFSHLDPTFSIPQANHSHSGDYHCTGNIGYTLFSSKPVTITVQVPSMGSSSPMGHHHHHH | 960 nM |  |  |
| FcγRI (receptor) QVDTTKAVITLQPPWVSVFQEETVTLHCEVLHLPGSSSTQWFLNGTATQTSTPSYRITSASVNDSGEYRCQRGLSGRSDPIQLEIHRGWLLLQVSSRVFTEGEPLALRCHAWKDKLVYNVLYYRNGKAFKFFHWNSNLTILKTNISHNGTYHCSGMGKHRYTSAGISVTVKELFPAPVLNASVTSPLLEGNLVTLSCETKLLLQRPGLQLYFSFYMGSKTLRGRNTSSEYQILTARREDSGLYWCEAATEDGNVLKRSPELELQVLGLQLPTP | 0.26 nM |  |  |
| MaE11_H1L1_IgG1_G236R/L328R (antibody) chain 1: not shown chain 2: DIQLTQSPSSLSASVGDRVTITCRASQSVDYDGDSYMNWYQQKPGQPPKLLIYAASYLGSEIPARFSGSGSGTDFTLTISSLQPEDFATYYCQQSHEDPYTFGAGTKLEIKRTVAAPSVFIFPPSDEQLKSGTASVVCLLNNFYPREAKVQWKVDNALQSGNSQESVTEQDSKDSTYSLSSTLTLSKADYEKHKVYACEVTHQGLSSPVTKSFNRGEC |  | 0.064 nM |  |
| MaE11_H1L1_IgG1_WT (antibody) chain 1: not shown chain 2: DIQLTQSPSSLSASVGDRVTITCRASQSVDYDGDSYMNWYQQKPGQPPKLLIYAASYLGSEIPARFSGSGSGTDFTLTISSLQPEDFATYYCQQSHEDPYTFGAGTKLEIKRTVAAPSVFIFPPSDEQLKSGTASVVCLLNNFYPREAKVQWKVDNALQSGNSQESVTEQDSKDSTYSLSSTLTLSKADYEKHKVYACEVTHQGLSSPVTKSFNRGEC |  | 0.061 nM | 2000 nM |

Second part, the binder after the results:

| Kd [1] | Kd [2] | Kd [3] | Binder |
| --- | --- | --- | --- |
| 60 nM |  |  | FcγRIIb (receptor) APPKAVLKLEPQWINVLQEDSVTLTCRGTHSPESDSIQWFHNGNLIPTHTQPSYRFKANNNDSGEYTCQTGQTSLSDPVHLTVLSEWLVLQTPHLEFQEGETIVLRCHSWKDKPLVKVTFFQNGKSKKFSRSDPNFSIPQANHSHSGDYHCTGNIGYTLYSSKPVTITVQAP |
|  | 0.063 nM | 5.6 nM | MaE11_H1L1_IgG1_S267E/L328F (antibody) chain 1: not shown chain 2: DIQLTQSPSSLSASVGDRVTITCRASQSVDYDGDSYMNWYQQKPGQPPKLLIYAASYLGSEIPARFSGSGSGTDFTLTISSLQPEDFATYYCQQSHEDPYTFGAGTKLEIKRTVAAPSVFIFPPSDEQLKSGTASVVCLLNNFYPREAKVQWKVDNALQSGNSQESVTEQDSKDSTYSLSSTLTLSKADYEKHKVYACEVTHQGLSSPVTKSFNRGEC |
